Measurements from US20050032689A1, “Methods for treatment or diagnosis of disease or disorders associated with an APB domain” (New York University, priority 1994, published 2005).

T1: binding of Shc 1-209 to the EGF receptor (Mus musculus, UniProt P98083)
T1 construct: we generated Shc 1-209 as a GST fusion protein; made in house; host or cells: bacteria (pGSTag vector)
T1 sequence (P98083 111-319): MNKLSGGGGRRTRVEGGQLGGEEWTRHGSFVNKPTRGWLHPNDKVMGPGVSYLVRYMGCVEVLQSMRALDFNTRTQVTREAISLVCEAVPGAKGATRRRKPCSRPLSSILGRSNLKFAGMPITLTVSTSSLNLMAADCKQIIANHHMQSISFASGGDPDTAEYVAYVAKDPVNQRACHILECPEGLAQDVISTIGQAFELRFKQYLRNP


How the values were obtained:
[1] = molecular target: T1, binding of Shc 1-209 to the EGF receptor; assay: Phosphotyrosine inhibition of Shc 1-209 binding to EGF receptor; settings: 30 mM phosphotyrosine; results not shown
Text: (§1) Accordingly we examined the binding of the Shc amino terminus (hereafter referred to as Shc 1-209) in further detail. First we determined if the binding of Shc 1-209 was dependent on EGF receptor activation. To perform these studies we generated Shc 1-209 as a GST fusion protein and examined its ability to bind EGF receptor from lysates of NIH 3T3 cells. […] We asked if this binding was dependent on receptor autophosphorylation. EGF receptor was immunoprecipitated from unstimulated cells and then tyrosine-phosphorylated in vitro by adding Mn^2+ and ATP. […] To confirm that the binding was dependent on autophosphorylation, we examined the binding of Shc 1-209 to EGF receptor mutants lacking autophosphorylation sites. […] This may represent a difference in the affinity of interactions or a basic difference in the molecular mechanism of EGF receptor interaction with Shc 1-209 versus SH2 domains.

[2] = molecular target: T2, binding of the Grb7 SH2 domain to EGF receptor (Mus musculus, UniProt Q03160); assay: Phosphotyrosine inhibition of Grb7 SH2 domain binding to EGF receptor; settings: 30 mM phosphotyrosine; results not shown
T2 construct: made in house; host or cells: bacteria
Text: as §1

[3] = system: HER2/neu (HER1/2 chimera); assay: Binding of GST-Shc fusion proteins to HER1/2 chimera from NIH 3T3 lysates, anti-phosphotyrosine blot; settings: EGF-stimulated NIH 3T3 lysates
Method: FIGS. 4A, 4B, 4C and 4D. Binding of Shc fragments to growth factor receptors. A, schematic diagram illustrating the Shc fragments used in binding studies. Full length murine p52^shc is indicated in (i) while (ii)-(vi) were generated as GST fusion proteins for use in receptor binding studies. B, association of various GST fusion proteins with activated EGF receptor (EGFR). Binding was performed as in FIG. 2A with the exception that all lysates were stimulated with EGF. All studies used 3 μg of fusion proteins except for the Shc SH2 where 10 μg was used. Immunoblotting was performed with anti-phosphotyrosine. C, binding of Shc fusion proteins to NIH 3T3 cells expressing a HER1/2 chimera. This chimera consists of the EGF receptor extracellular binding domain and the intracellular region of HER2/neu. After stimulation of these cells with EGF (200 ng/ml) lysates were prepared and binding as well as blotting studies were performed as in B using anti-phosphotyrosine antibody. D, binding of Shc 1-209 to TrkA. Beads containing 10 μg of GST fusion proteins Shc 1-209, phospholipase C-γ (PLC-γ) SH2 (contains both N and C SH2 domains), or GST alone were added to lysates from 2×10^7 PC12 cells stimulated with 50 ng/ml nerve growth factor (lanes 1, 2, and 4). The binding of the same amount of lysate to 2 μg of anti-TrkA antibody is shown as a positive control and to indicate the position of TrkA on the blot (lane 3). Otherwise, the binding and blotting were performed as in B using anti-phosphotyrosine antibody. […] Protein concentration was determined by SDS-PAGE (polyacrylamide gel electrophoresis) using bovine serum albumin as a standard. […]

EGF receptor = molecular target: T3, EGF receptor (Homo sapiens, UniProt P00533); assay: Binding of GST fusion proteins on glutathione-agarose beads to EGF receptor from HER14 cell lysates, immunoblot; settings: GST fusion protein, lysates of EGF-stimulated or unstimulated cells
T3 construct: expressed in transfected cells; host or cells: HER14 (NIH 3T3 cells expressing human EGF receptor)
Method: FIGS. 2A and 2B. Association of GST-Shc 1-209 with the EGF Receptor (EGFR). A, HER14 lysates from either EGF-stimulated (+) or unstimulated (−) cells (5×10^6 cells) were incubated with 3 μg of GST fusion protein immobilized on glutathione-agarose beads. The bound proteins were washed, subjected to SDS-PAGE, transferred to nitrocellulose and immunoblotted with anti-EGF receptor antibody, anti-C (anti-EGFR). HER14 lysate (4×10^5 cells) was run directly on the gel in lanes 5 and 6. B, unstimulated HER14 lysates (5×10^6 cells) were immunoprecipitated with anti-EGFR antibody (mAb 108). The immobilized receptor was then phosphorylated (+) by the addition of 5 mM MnCl2 and 50 μM ATP or left unphosphorylated (−) by adding MnCl2 alone. Bacterial lysates containing 5 μg of GST, GST-Grb7, and GST-Shc 1-209 were then diluted in 1 ml of 1% Triton X-100 lysis buffer, added to the immobilized receptor and incubated at 4° C. for 90 min. The bound proteins were washed and together with 40 μl of the post-binding supernatant separated by SDS-PAGE and transferred to nitrocellulose. The bound fractions (left panel) and supernatants (right panel) were immunoblotted with anti-GST. FIGS. 4A, 4B, 4C and 4D. Binding of Shc fragments to growth factor receptors. A, schematic diagram illustrating the Shc fragments used in binding studies. Full length murine p52^shc is indicated in (i) while (ii)-(vi) were generated as GST fusion proteins for use in receptor binding studies. B, association of various GST fusion proteins with activated EGF receptor (EGFR). Binding was performed as in FIG. 2A with the exception that all lysates were stimulated with EGF. All studies used 3 μg of fusion proteins except for the Shc SH2 where 10 μg was used. Immunoblotting was performed with anti-phosphotyrosine. C, binding of Shc fusion proteins to NIH 3T3 cells expressing a HER1/2 chimera. This chimera consists of the EGF receptor extracellular binding domain and the intracellular region of HER2/neu. After stimulation of these cells with EGF (200 ng/ml) lysates were prepared and binding as well as blotting studies were performed as in B using anti-phosphotyrosine antibody. D, binding of Shc 1-209 to TrkA. Beads containing 10 μg of GST fusion proteins Shc 1-209, phospholipase C-γ (PLC-γ) SH2 (contains both N and C SH2 domains), or GST alone were added to lysates from 2×10^7 PC12 cells stimulated with 50 ng/ml nerve growth factor (lanes 1, 2, and 4). The binding of the same amount of lysate to 2 μg of anti-TrkA antibody is shown as a positive control and to indicate the position of TrkA on the blot (lane 3). Otherwise, the binding and blotting were performed as in B using anti-phosphotyrosine antibody. […]

T2 sequence (Q03160 434-530 limits assumed): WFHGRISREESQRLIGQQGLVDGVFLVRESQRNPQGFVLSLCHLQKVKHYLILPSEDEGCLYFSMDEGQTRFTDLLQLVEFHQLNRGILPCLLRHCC

inhibition of binding of Shc 1-209 to the EGF receptor [1]	inhibition of binding of the Grb7 SH2 domain to the EGF receptor [2]	Molecule	binding to HER2/neu [3]	binding to EGF receptor (EGF receptor)
partially inhibit	completely inhibited	N[C@@H](Cc1ccc(OP(=O)(O)O)cc1)C(=O)O [phosphotyrosine]		
		Shc 85-209: Shc construct with a more severe amino-terminal deletion, GST fusion protein (protein, UniProt P98083 85-209, looked up, fragment, GST fusion, Shc construct with a more severe amino-terminal deletion, GST fusion protein) GKAAEDGEGSAGAALRDSGLLPLLQDMNKLSGGGGRRTRVEGGQLGGEEWTRHGSFVNKPTRGWLHPNDKVMGPGVSYLVRYMGCVEVLQSMRALDFNTRTQVTREAISLVCEAVPGAKGATRRR	did not bind growth factor receptors	did not bind growth factor receptors
		Shc 46-209: amino acids encoding the amino terminus of p46Shc, GST fusion protein (protein, UniProt P98083 46-209, looked up, fragment, GST fusion, amino acids encoding the amino terminus of p46Shc, GST fusion protein) LPPLPGDDSPTTLCSFFPRMSNLKLANPAGGRLGPKGEPGKAAEDGEGSAGAALRDSGLLPLLQDMNKLSGGGGRRTRVEGGQLGGEEWTRHGSFVNKPTRGWLHPNDKVMGPGVSYLVRYMGCVEVLQSMRALDFNTRTQVTREAISLVCEAVPGAKGATRRR	can bind both EGF receptor and HER2/neu receptor	can bind both EGF receptor and HER2/neu receptor
